Source: US20250026829A1 (published 2025)
One block for each binder: values may come before it. Where no end group is shown, it is not given here.

Legend:
[1] = biological target: … (SEQ ID NO: 1) HLA-A*24 complex, oxidised form of the peptide (human); experiment: SPR, soluble TCR over immobilised biotinylated pHLA, equilibrium, 25 C
[2] = biological target: … (SEQ ID NO: 1) HLA-A*24 complex, reduced form of the peptide (human); experiment: as above
[3] = biological target: T1, PRAME peptide on HLA-A*24:02 (human); experiment: SPR, equilibrium, 25 C; reduced peptide; soluble, with an engineered disulfide between the constant domains
T1 peptide: PYLGQMINL

[4] = biological target: T2, PRAME peptide on HLA-A*24:02 (human, not fully specified (residue 6)); experiment: SPR, equilibrium, 25 C; oxidised peptide; soluble, with an engineered disulfide between the constant domains
T2 peptide: PYLGQMINL

B1: S6 (TCR)
alpha TRAV21 CDR3: AVPNPSARQLT
beta TRBV7-9 CDR3: ASSLEGQGVEQF
Kd [1]: 241 µM
Kd [2]: 126 µM
Kd [3]: 126 µM
Kd [4]: 241 µM

B3: S5 (TCR)
alpha TRAV12-2 CDR3: AVNKGFQKLV
beta TRBV6-1 CDR3: ASSEGWGGQPQH
Kd [2]: 14.5 µM
Kd [3]: 14.5 µM

B5: S4 (TCR)
alpha TRAV12-2 CDR3: AVNGPNNAGNMLT
beta TRBV6-2/3 CDR3: ASSPGGFGQPQH
Kd [2]: 18.9 µM
Kd [3]: 18.9 µM

More lines, in order of falling Kd [2], values ahead:

Kd [2]: 85 µM
Kd [3]: 85 µM
B2: S1 (TCR)
alpha TRAV24 CDR3: AFISWRSSGDKLT
beta TRBV25 CDR3: ASSSPLSGPLASPLH

Kd [1]: 193 µM
Kd [2]: 53 µM
Kd [3]: 53 µM
Kd [4]: 193 µM
B4: S10 (TCR)
alpha TRAV27 CDR3: GAIWSTLGRLY
beta TRBV5-6 CDR3: SSFKGVNQPQH
